Consider six molecules from patent US20190085095A1 (SHIRE HUMAN GENETIC THERAPIES, published 2019).

Where a chain is given by its changes, count along the chain named. Numbers in names are those of the source. Where “and” joins values, the source holds several entries; their conditions need not be identical. Equal entries are not always repeated.

Assay [1] concerns the target T1, human complement component 5 (C5) (human, UniProt P01031 19-1676). Kind of assay: cell-based or functional assay.
For assay [2], the target named is T2, cynomolgus monkey C5 (cynomolgus monkey, UniProt A0A2K5U1T1 19-1676).
T2 construct: also called cC5; cynomolgus C5
Kind of assay: mean affinity for cC5, Biacore. A general note: SPR reads the build-up and loss of mass on a sensor chip optically.

Assay [3] has as its target T1, human complement component 5 (C5). Kind of assay: Biacore, pH 7.4, against Control 1.
Experimental: (§1) The kinetics of binding of purified human C5 (hC5) or hC5 in human serum to immobilized mAbs (via capture with anti-Fc antibodies) were measured by Biacore® assays over a pH range from 7.4 to 5.5. Binding was tested at pH 7.4, 7.0, 6.5, 6.0, and 5.5.
Assay [4] shares this target. Kind of assay: Biacore; KD at pH 5.5 against KD at pH 7.4.
Experimental: as §1
Assay [5] has the same target. Kind of assay: Biacore, mAb captured via anti-Fc, hC5, pH 5.5.
Experimental: as §1
Assay [6] has the same target. Kind of assay: Biacore, mAb captured via anti-Fc, hC5, pH 7.4.
Experimental: as §1
Assay [7] has as its target T3, human neonatal Fc receptor (FcRn) (human, UniProt P55899 24-297; P61769 21-119).
T3 construct: also called hFcRn; recombinant FcRn
Kind of assay: Biacore, immobilized recombinant hFcRn, pH 5.5; pH 5.5.
Experimental: (§2) Kinetics of binding to immobilized recombinant FcRn was determined for mAbs at pH 7.4 and pH 5.5 in Biacore® assays.

In assay [8] the target is T3, human neonatal Fc receptor (FcRn). Kind of assay: Biacore, immobilized recombinant hFcRn, pH 6.0; pH 6.0.
Experimental: as §2
A further assay addresses FcγRIIIA (UniProt P08637 17-208, limits assumed). Kind of assay: binding affinity to Fcγ receptor, method not stated; range 1000-31.25 nM.
The target in assay [9] is T1, human complement component 5 (C5). Kind of assay: Kd at pH 5.5 against Kd at pH 7.4.
Assay [10] has the same target. Kind of assay: C5 binding affinity at pH 5.5; method not named in Example 2.
The target is the same in assay [11]. Kind of assay: C5 binding affinity at pH 7.4; method not named in Example 2; pH 7.4; IgG2 Fc.
In a further assay the target is T4, baboon C5 (baboon).
T4 construct: also called C5 in baboon serum
Kind of assay: Biacore, antibody captured, baboon serum as analyte, pH 7.4; estimated, C5 titer assumed.

The next assay deals with T5, African Green monkey C5 (African Green monkey).
T5 construct: also called C5 in African Green monkey serum
Kind of assay: Biacore, antibody captured, African Green monkey serum as analyte, pH 7.4; estimated, C5 titer assumed.

Assay [12] has as its target T2, cynomolgus monkey C5. Kind of assay: KD for cC5 of Antibody B against that of Control 1.
For assay [13], the target named is T3, human neonatal Fc receptor (FcRn). Kind of assay: Biacore, immobilized recombinant hFcRn, pH 5.5.
Experimental: as §2
Assay [14] shares this target. Kind of assay: Biacore, immobilized recombinant hFcRn, pH 6.0.
Experimental: as §2
Assay [15] concerns the target T2, cynomolgus monkey C5. Kind of assay: Biacore, pH 7.4, cynomolgus against human (FIG. 8G).
Experimental: (§3) Biacore® binding assays were performed with antibody captured on the chip and sera from 16 different mammalian species as the analyte that is flowed over the chip.
To validate the binding as specific to C5, pull-down experiments were performed on sera from cynomolgus monkeys. Size exclusion chromatography was used to purify the resulting cynomolgus C5, which was also used to reconfirm binding on biacore.
In assay [16] the target is T1, human complement component 5 (C5). Kind of assay: Biacore, antibody captured, purified C5, pH 7.4.
The target is the same in assay [17]. Kind of assay: Biacore, mAb captured via anti-Fc, purified hC5, pH 5.5.
Experimental: (§4) Binding of hC5 to immobilized mAbs (via capture with anti-Fc antibodies) were measured by Biacore® assays at 7.4 and pH 5.5.
Assay [18] shares this target. Kind of assay: Biacore, mAb captured via anti-Fc, purified hC5, pH 7.4.
Experimental: as §4
Assay [19] has the same target. Kind of assay: Biacore, antibody captured, human serum as analyte, pH 7.4.
Experimental: as §3
The target in assay [20] is T2, cynomolgus monkey C5. Kind of assay: Biacore, antibody captured, cynomolgus serum as analyte, pH 7.4.
Experimental: as §3
The target of assay [21] is T3, human neonatal Fc receptor (FcRn). Kind of assay: Biacore, immobilized recombinant hFcRn, pH 7.4; range 2000-15.6 nM.
Experimental: as §2
For the next assay, the target named is FcγRI (UniProt P12314 16-288, limits assumed). Kind of assay: binding affinity to Fcγ receptor, method not stated; range 62.5-0.48 nM.
In another assay the target is T6, rhesus monkey C5 (rhesus monkey, UniProt F7GHV1 19-1676).
T6 construct: also called C5 in rhesus serum
Kind of assay: Biacore, antibody captured, rhesus serum as analyte, pH 7.4; estimated, C5 titer assumed.

The target of a further assay is T7, CD-1 mouse C5 (CD-1 mouse, UniProt P06684 19-1680).
T7 construct: also called C5 in CD-1 mouse serum; CD1 mice
Kind of assay: Biacore, antibody captured, CD-1 mouse serum as analyte, pH 7.4; estimated, C5 titer assumed.

Assay [22] addresses T3, human neonatal Fc receptor (FcRn). Kind of assay: Biacore, immobilized recombinant hFcRn, pH 7.4; range 50-0.39 nM; pH 7.4; concentration range 50-0.39 nM.
Experimental: as §2
Assay [23] concerns the target T1, human complement component 5 (C5). Kind of assay: C5 binding affinity at pH 7.4; method not named in Example 2.

T3 sequence (P55899 24-297 limits assumed, chain 1 of 2): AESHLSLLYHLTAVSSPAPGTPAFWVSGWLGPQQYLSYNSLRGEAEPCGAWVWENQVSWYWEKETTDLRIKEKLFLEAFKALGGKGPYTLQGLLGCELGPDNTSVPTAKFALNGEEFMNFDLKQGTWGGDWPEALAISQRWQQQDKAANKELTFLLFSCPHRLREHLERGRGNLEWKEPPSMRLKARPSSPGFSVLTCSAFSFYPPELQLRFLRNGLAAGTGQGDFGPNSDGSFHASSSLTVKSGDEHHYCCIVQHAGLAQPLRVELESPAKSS
T3 sequence (P61769 21-119 limits assumed, chain 2 of 2): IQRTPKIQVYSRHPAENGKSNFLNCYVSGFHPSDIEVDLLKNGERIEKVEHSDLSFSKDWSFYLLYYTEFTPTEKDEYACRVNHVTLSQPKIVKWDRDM
Chain of FcγRI (P12314 16-288 limits assumed): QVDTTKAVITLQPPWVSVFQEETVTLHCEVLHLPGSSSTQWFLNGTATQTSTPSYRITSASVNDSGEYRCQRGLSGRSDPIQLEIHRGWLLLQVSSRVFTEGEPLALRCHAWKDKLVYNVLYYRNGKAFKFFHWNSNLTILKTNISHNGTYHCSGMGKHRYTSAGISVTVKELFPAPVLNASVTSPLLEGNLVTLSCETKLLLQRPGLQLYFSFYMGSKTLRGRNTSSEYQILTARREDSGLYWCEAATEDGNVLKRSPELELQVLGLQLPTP
Chain of FcγRIIIA (P08637 17-208 limits assumed): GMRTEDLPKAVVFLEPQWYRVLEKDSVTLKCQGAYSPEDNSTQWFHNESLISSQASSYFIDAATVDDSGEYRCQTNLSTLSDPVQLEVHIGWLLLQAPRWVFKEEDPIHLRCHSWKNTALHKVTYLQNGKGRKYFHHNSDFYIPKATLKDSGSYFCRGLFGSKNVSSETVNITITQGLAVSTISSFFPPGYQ
T6 sequence (F7GHV1 entry or part of it): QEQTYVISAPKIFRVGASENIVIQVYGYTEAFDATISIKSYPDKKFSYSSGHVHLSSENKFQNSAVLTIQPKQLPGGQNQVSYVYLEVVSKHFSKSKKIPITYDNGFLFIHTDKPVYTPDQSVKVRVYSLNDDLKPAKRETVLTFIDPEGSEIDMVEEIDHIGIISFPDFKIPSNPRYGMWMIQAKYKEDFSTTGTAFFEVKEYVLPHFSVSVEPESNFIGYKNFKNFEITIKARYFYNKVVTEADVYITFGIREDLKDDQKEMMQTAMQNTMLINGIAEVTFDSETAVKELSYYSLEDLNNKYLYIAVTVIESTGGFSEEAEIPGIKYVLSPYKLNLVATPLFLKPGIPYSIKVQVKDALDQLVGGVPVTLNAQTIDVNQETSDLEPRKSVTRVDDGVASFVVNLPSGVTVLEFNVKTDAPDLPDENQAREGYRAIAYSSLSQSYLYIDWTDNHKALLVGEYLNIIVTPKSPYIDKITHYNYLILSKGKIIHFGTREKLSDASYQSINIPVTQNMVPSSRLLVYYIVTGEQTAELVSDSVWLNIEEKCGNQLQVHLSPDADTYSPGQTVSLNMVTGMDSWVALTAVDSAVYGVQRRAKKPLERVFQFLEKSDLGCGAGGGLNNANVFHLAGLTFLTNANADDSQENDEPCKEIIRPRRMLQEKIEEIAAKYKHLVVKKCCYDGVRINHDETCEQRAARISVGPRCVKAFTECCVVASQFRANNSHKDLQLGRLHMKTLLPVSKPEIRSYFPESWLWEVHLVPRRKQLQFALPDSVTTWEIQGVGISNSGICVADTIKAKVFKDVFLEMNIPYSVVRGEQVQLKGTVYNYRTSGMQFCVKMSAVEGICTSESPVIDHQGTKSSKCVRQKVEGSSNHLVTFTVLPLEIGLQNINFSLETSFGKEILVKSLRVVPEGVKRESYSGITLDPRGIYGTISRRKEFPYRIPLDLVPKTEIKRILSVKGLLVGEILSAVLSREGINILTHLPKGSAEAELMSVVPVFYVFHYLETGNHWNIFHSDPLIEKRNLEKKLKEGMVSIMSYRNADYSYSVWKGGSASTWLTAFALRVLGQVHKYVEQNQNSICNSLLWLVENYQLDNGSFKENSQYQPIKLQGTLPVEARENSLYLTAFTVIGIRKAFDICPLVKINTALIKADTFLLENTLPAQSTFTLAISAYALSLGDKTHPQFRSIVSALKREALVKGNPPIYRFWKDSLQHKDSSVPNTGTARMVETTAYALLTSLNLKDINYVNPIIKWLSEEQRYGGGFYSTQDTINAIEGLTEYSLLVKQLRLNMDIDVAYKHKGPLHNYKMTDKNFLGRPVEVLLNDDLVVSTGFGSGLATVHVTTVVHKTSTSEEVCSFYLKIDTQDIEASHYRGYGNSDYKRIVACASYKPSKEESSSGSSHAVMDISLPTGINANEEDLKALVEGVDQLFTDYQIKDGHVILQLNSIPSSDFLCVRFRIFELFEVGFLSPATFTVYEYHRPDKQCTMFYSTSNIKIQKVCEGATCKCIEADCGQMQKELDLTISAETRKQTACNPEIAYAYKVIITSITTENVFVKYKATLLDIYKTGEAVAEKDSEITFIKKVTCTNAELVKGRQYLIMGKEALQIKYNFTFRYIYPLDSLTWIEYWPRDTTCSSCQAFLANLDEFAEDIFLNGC
T7 sequence (P06684 19-1680 limits assumed): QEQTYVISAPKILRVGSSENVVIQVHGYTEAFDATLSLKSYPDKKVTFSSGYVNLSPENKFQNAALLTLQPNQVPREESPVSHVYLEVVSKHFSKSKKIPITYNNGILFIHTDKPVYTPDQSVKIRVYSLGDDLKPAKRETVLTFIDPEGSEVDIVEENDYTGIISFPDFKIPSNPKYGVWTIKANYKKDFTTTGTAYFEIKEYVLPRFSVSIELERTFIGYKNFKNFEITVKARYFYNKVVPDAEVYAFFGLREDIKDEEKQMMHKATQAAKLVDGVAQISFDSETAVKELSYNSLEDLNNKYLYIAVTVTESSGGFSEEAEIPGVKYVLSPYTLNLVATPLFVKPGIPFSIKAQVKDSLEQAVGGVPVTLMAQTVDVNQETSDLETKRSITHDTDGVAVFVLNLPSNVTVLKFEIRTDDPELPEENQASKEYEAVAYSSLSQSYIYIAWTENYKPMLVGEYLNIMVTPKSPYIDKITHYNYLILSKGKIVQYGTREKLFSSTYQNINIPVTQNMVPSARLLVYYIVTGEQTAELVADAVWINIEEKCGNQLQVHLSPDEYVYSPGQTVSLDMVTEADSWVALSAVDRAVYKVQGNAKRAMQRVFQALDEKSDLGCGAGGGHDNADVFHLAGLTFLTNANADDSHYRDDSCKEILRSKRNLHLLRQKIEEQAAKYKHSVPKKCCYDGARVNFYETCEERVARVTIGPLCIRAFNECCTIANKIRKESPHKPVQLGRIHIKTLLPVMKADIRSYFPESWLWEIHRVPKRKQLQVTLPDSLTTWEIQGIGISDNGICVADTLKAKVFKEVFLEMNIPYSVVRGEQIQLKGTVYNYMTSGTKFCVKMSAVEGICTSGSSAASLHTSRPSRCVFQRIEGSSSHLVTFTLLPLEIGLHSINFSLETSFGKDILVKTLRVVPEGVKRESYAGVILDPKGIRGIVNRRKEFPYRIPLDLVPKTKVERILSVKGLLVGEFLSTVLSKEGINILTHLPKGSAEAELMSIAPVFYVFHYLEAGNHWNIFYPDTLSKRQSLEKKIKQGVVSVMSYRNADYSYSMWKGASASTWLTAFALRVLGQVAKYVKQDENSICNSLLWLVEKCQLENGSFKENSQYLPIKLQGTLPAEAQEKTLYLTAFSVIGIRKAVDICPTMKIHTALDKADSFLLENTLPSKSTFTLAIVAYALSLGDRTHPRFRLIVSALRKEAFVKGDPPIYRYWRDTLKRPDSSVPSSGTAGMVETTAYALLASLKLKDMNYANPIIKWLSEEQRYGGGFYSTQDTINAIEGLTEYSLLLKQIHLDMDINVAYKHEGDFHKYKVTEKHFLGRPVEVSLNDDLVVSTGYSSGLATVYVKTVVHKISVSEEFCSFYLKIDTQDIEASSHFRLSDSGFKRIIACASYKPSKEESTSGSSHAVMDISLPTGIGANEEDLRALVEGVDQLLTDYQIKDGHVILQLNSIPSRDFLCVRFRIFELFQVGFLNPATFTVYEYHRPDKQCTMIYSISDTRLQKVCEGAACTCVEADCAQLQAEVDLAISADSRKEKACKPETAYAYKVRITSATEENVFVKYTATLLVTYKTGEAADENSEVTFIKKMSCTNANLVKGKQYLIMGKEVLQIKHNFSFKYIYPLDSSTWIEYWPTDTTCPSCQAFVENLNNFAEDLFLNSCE
Experimental for African Green monkey C5: as §3
Experimental for CD-1 mouse C5: as §3
Experimental for baboon C5: as §3
Experimental for rhesus monkey C5: as §3

B1: Antibody A (antibody, human IgG1, kappa, L234A L235A)
heavy: not shown
light: DIQMTQSPSSLSASVGDRVTITCGAHENIYHALNWYQQKPGKAPKLLIYGATNLAHGVPSRFSGSGSGTDFTLTISSLQPEDFATYYCQNVLNTPLTFGQGTKVEIKRTVAAPSVFIFPPSDEQLKSGTASVVCLLNNFYPREAKVQWKVDNALQSGNSQESVTEQDSKDSTYSLSSTLTLSKADYEKHKVYACEVTHQGLSSPVTKSFNRGEC
notes: IgG1 with L234A, L235A
A word on the Kd: it is a measure of binding affinity in units of concentration. As to B1, the “IC50 for inhibition of antibody-sensitized lysis of chicken RBC by human serum” value in assay [1] stood at 3 µg/mL. The Kd was found to be 1.65 nM in the assay with cynomolgus monkey C5 [2]; 113 nM in assay [5]; 0.34 nM in [6]; 5.9 nM in assay [7]; 11.3 nM in assay [8]; 7420 nM with FcγRIIIA. Besides, the “fold reduction of the C5 binding affinity at pH 7.4 as compared to Control 1” value (from here on “fold reduction”) in assay [3] was less than 3 fold. In assay [4], this molecule yielded a KD fold-change of 332 fold.

B2: Antibody D (antibody, human IgG2, kappa)
heavy: QVQLVQSGAEVKKPGASVKVSCKASGYIFSNYWIQWVRQAPGQGLEWMGEILPGSGSTEYTENFKDRVTMTRDTSTSTVYMELSSLRSEDTAVYYCARYHFGSSPNWYFDVWGQGTLVTVSSASTKGPSVFPLAPCSRSTSESTAALGCLVKDYFPEPVTVSWNSGALTSGVHTFPAVLQSSGLYSLSSVVTVPSSNFGTQTYTCNVDHKPSNTKVDKTVERKCCVECPPCPAPPVAGPSVFLFPPKPKDTLMISRTPEVTCVVVDVSHEDPEVQFNWYVDGVEVHNAKTKPREEQFNSTFRVVSVLTVVHQDWLNGKEYKCKVSNKGLPAPIEKTISKTKGQPREPQVYTLPPSREEMTKNQVSLTCLVKGFYPSDIAVEWESNGQPENNYKTTPPMLDSDGSFFLYSKLTVDKSRWQQGNVFSCSVMHEALHNHYTQKSLSLSPGK
light: B1 light with H26S, H31G, H56D, N93H
notes: IgG2 Fc constant region; also called F100H heavy / N93H light on IgG2 backbone
Regarding B2, the “Fold change in Kd (pH 5.5 vs. pH 7.4)” value in assay [9] came to 13.4 fold. The values for the Kd in assay [10] and in [11] were 13.9 nM and 1.04 nM, respectively.

B3: Control 1 (antibody, human IgG2, kappa)
heavy: QVQLVQSGAEVKKPGASVKVSCKASGYIFSNYWIQWVRQAPGQGLEWMGEILPGSGSTEYTENFKDRVTMTRDTSTSTVYMELSSLRSEDTAVYYCARYFFGSSPNWYFDVWGQGTLVTVSSASTKGPSVFPLAPCSRSTSESTAALGCLVKDYFPEPVTVSWNSGALTSGVHTFPAVLQSSGLYSLSSVVTVPSSNFGTQTYTCNVDHKPSNTKVDKTVERKCCVECPPCPAPPVAGPSVFLFPPKPKDTLMISRTPEVTCVVVDVSQEDPEVQFNWYVDGVEVHNAKTKPREEQFNSTYRVVSVLTVLHQDWLNGKEYKCKVSNKGLPSSIEKTISKAKGQPREPQVYTLPPSQEEMTKNQVSLTCLVKGFYPSDIAVEWESNGQPENNYKTTPPVLDSDGSFFLYSRLTVDKSRWQEGNVFSCSVMHEALHNHYTQKSLSLSLGK
light: B1 light with H26S, H31G, H56D
notes: IgG2 and IgG4 (IgG 2-4); produced in CHO cells; also called control antibody
As to B3, the Kd in assay [7] is 125 nM; in assay [8], 125 nM; with baboon C5, 16.2 nM; with African Green monkey C5, 27.5 nM.

B4: Antibody B (antibody, human IgG1, kappa, L234A L235A)
heavy: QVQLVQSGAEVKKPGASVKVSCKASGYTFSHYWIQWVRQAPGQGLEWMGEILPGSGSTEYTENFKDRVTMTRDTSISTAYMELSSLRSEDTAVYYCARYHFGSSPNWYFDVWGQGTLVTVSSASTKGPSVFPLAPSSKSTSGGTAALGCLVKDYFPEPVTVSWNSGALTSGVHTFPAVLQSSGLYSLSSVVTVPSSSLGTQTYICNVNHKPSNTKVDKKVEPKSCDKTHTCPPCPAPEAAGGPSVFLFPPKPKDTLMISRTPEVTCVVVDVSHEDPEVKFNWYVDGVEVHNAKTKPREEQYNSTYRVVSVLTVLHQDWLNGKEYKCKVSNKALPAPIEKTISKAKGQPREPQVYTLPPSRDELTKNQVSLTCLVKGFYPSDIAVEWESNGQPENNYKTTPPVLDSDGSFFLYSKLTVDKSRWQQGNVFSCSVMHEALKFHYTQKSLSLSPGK
light: B1 light
notes: IgG1 with L234A, L235A, H433K, N434F
Regarding B4, the “IC50 for inhibition of antibody-sensitized lysis of chicken RBC by human serum” value in [1] amounted to 3 µg/mL. Further, the “fold reduction” value in [3] is less than 3 fold. In assay [4], this molecule showed a KD fold-change of 414 fold. Moreover, the “fold improvement in affinity against Control 1” value with cynomolgus monkey C5 [12] is 8 fold. Besides, the Kd in [5] was 145 nM; in [6], 0.35 nM; in assay [13] it was 0.13 nM; in assay [14], 0.24 nM; in assay [16], 0.34 nM; in assay [19], 0.33 nM. In addition, the Kd was 1.9 nM with cynomolgus monkey C5 [20]; 191 nM in assay [21]; 94 nM and 75 nM and 62 nM with FcγRI; 9620 nM in the assay with FcγRIIIA; 2.6 nM with baboon C5; 3.19 nM in the assay with rhesus monkey C5. In addition, the Kd with CD-1 mouse C5 was 5.3 nM; in the assay with African Green monkey C5, 3.2 nM; in assay [22], 108 nM. Further, in the assay with cynomolgus monkey C5 [15], the “fold lower affinity than for human C5” value came to 5.7 fold. In assay [17], the “fold lower affinity than BNJ441 at pH 5.5” value was determined as 10 fold. Moreover, the “fold greater affinity than BNJ441 at pH 7.4” value in assay [18] is 3 fold.

B5: Antibody E (antibody, human IgG1, kappa, L234A L235A)
heavy: not shown
light: B1 light with H26S, H31G, H56D, N93H
notes: IgG1 Fc constant region; also called F100H heavy / N93H light on IgG1 backbone
For B5, the “Fold change in Kd (pH 5.5 vs. pH 7.4)” value in assay [9] was 48.5 fold. Further, the Kd in [10] was found to be 34.9 nM; in assay [23] it was 0.72 nM.

B6: Antibody C (antibody, human IgG1, kappa, L234A L235A, V domains shown)
VH: QVQLVQSGAEVKKPGASVKVSCKASGYTFSHYWIQWVRQAPGQGLEWMGEILPGSGSTEYTENFKDRVTMTRDTSISTAYMELSSLRSEDTAVYYCARYHFGSSPNWYFDVWGQGTLVTVSS
VL: DIQMTQSPSSLSASVGDRVTITCGAHENIYGALNWYQQKPGKAPKLLIYGATNLAHGVPSRFSGSGSGTDFTLTISSLQPEDFATYYCQNVLNTPLTFGQGTKVEIKR
notes: as for B4
With B6, the “fold reduction” value in assay [3] was less than 3 fold. This molecule had a KD fold-change in [4] of 142 fold. Besides, the Kd came out at 37 nM in [5] and 0.26 nM in [6].
